Measured values published in article PMC9871967, “A hnRNPA2B1 agonist effectively inhibits HBV and SARS-CoV-2 omicron in vivo” (Protein & Cell, 2022).

Target: the molecule itself
Assay: native gel or EMSA; HepG2.2.15 cells treated with PAC5 (10 μmol/L) for the indicated time; cell lysates on native PAGE, hnRNPA2B1-dimerization assay by immunoblot

B1: heterogeneous nuclear ribonucleoprotein A2B1 (natural protein, UniProt P22626 1-353, looked up)
chain: MEKTLETVPLERKKREKEQFRKLFIGGLSFETTEESLRNYYEQWGKLTDCVVMRDPASKRSRGFGFVTFSSMAEVDAAMAARPHSIDGRVVEPKRAVAREESGKPGAHVTVKKLFVGGIKEDTEEHHLRDYFEEYGKIDTIEIITDRQSGKKRGFGFVTFDDHDPVDKIVLQKYHTINGHNAEVRKALSRQEMQEVQSSRSGRGGNFGFGDSRGGGGNFGPGPGSNFRGGSDGYGSGRGFGDGYNGYGGGPGGGNFGGSPGYGGGRGGYGGGGPGYGNQGGGYGGGYDNYGGGNYGSGNYNDFGNYNQQPSNYGPMKSGNFGGSRNMGGPYGGGNYGPGGSGGSGGYGGRSRY
notes: heterogeneous nuclear ribonucleoprotein A2B1, endogenous in human hepatoma cell lines, precipitated and detected with anti-hnRNPA2B1 (Santa Cruz sc-32316); Endogenous protein; also called hnRNPA2B1; source: endogenous, HepG2.2.15, HepAD38 and HepG2 cell lysates
stoichiometry N: 2
